Assay results reported in US20210130455A1 (KEIO UNIVERSITY, published 2021).

Legend:
[1] = molecular target: T1, peptide used for immunization (SEQ ID NO:1), ATYPSGHLDM (human and mouse (identical sequence)); assay: ELISA on the immunogen peptide SEQ ID NO:1
T1 construct: Synthetic peptide; also called immunogen peptide; synthetic peptide
T1 peptide: ATYPSGHLDM
Description: Binding of antibodies A, B, C, D, E, F, G, H, J, and K to the peptide used for immunization (SEQ ID NO:1) was tested in an ELISA assay. […] Thus, antibodies A, D, and F may therefore bind to AQP3 at a different epitope.

[2] = molecular target: T2, human AQP3 on the cell surface (HaCaT cells, A431 cells, HEK293 cells stably overexpressing human AQP3) (human, UniProt Q92482 1-292); assay: fluorescence of a labelled secondary antibody on HaCaT cells; antibody at 10 µg/mL
T2 construct: whole, on cells; Membrane water channel; also called human aquaporin 3
T2 sequence (looked up): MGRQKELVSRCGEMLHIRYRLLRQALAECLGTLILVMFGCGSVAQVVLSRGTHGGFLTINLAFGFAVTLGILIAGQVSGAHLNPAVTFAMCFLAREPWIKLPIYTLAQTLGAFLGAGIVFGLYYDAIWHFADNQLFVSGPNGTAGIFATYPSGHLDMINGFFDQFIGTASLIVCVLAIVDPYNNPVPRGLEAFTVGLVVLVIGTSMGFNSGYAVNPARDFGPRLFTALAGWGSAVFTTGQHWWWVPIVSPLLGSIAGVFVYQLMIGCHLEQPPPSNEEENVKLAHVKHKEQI
Description: (§1) PAM212 and macrophage cells were reacted with each anti AQP3 antibody (0.1, 1, or 10 μg/mL) at 4° C. for 1 hour. After washing the cells, a fluorescent-labeled anti mouse secondary antibody was added and the reaction was allowed to occur additionally for 1 hour (4° C.). By measuring the fluorescence intensity, the binding property of each anti AQP3 antibody to cells was obtained.
The assay was also performed using HaCaT cells and antibodies A, B, C, D, E, F, G, H, and J at a concentration of 10 μg/mL. Binding of antibodies C, D, E, H, and J to HaCaT cells was statistically significant. The results obtained by performing a FACS assay using HaCaT, which are human epithelial cells, and antibody G, antibody H, or antibody J are shown in FIG. 6A-6C, respectively. HaCaT cells were treated with Cell Dissociation Buffer for 30 minutes at 37° C., and then dislodged and collected. Then, the cells were reacted with 10 μg/mL anti AQP3 antibody at 4° C. for 1 hour. After washing the cells, a fluorescent-labeled anti mouse secondary antibody was added and the reaction was allowed to occur additionally for 1 hour (4° C.). Then, by using a flow cytometer, fluorescence intensity was measured (FIG. 6A to FIG. 6C). FIG. 6A represents the result of a case in which antibody G was used, FIG. 6B represents the result of a case in which antibody H was used, and FIG. 6C represents the result of a case in which antibody J was used. […] The histogram expressed with bold line represents a case in which the anti AQP3 antibody was used while the histogram expressed with thin gray line represents a case as a control in which the anti AQP3 antibody was not used (addition of non-specific IgG). […] Ratio (%) of the cells included in this range (=cells showing positive staining by anti AQP3 antibody) is also shown in the drawing.

[3] = molecular target: T3, mouse AQP3 on the cell surface (PAM212 cells, mouse macrophage cells, HEK293 cells stably overexpressing … (mouse, UniProt Q8R2N1 1-292)); assay: fluorescence of a labelled secondary antibody on PAM212 cells; antibody at 10 µg/mL
T3 construct: whole, on cells; Membrane water channel; also called mouse aquaporin 3
T3 sequence (looked up): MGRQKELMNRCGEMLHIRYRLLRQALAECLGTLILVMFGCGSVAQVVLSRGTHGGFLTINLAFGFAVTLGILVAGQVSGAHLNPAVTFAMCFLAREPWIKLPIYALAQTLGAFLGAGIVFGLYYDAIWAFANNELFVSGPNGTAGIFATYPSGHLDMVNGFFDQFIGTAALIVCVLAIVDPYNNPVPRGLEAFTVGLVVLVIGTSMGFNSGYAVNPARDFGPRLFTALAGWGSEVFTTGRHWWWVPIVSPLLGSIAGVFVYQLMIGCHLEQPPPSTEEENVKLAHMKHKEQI
Description: as §1
The assay was also performed using PAM212 cells and antibodies A, B, C, D, E, F, G, H, and J at a concentration of 10 μg/mL. Binding of antibodies C, D, E, G, and J to PAM212 cells was statistically significant.

[4] = molecular target: T4, mouse AQP3 in cell lysate of HEK293T cells overexpressing mouse AQP3 and a myc-biotinylated tag (mouse, UniProt Q8R2N1 1-292, biotinylated tag (site not given)); assay: ELISA on lysate of HEK293T cells overexpressing mouse AQP3 and a myc-biotinylated tag
T4 construct: also called AQP3 (cell lysate); not shown: myc-biotinylated tag
T4 sequence (looked up): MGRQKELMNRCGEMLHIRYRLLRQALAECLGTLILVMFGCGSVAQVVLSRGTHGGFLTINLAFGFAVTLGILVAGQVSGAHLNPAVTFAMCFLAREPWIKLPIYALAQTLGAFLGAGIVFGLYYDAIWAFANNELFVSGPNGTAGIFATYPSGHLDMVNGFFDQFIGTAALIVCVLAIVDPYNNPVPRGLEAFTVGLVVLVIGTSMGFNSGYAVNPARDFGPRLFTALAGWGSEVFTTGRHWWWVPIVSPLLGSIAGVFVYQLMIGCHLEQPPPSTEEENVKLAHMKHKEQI
Description: Cell lysate from HEK293T cells overexpressing mouse AQP3 and a myc-biotinylated tag was used in an ELISA assay to measure the binding of antibodies A, B, C, D, E, F, G, H, J, and K to AQP3. Cell lysate from HEK293T cells overexpressing the myc-biotinylated tag but not AQP3 was used as control.

[5] = molecular target: T3, mouse AQP3 on the cell surface (PAM212 …); assay: fluorescence of a labelled secondary antibody on mouse macrophage cells; antibody at 0.1, 1 and 10 µg/mL
Description: as §1
The testing was also carried out using solvent (Veh) or a non-specific IgG (IgG) controls. In FIG. 4, the vertical axis represents fluorescence intensity, and the mean fluorescence intensity of each sample is represented by bar height together with standard error.

[6] = molecular target: T2, human AQP3 on the cell surface (HaCaT …); assay: flow cytometry on HaCaT cells; antibody at 10 µg/mL
Description: The assay was also performed using HaCaT cells and antibodies A, B, C, D, E, F, G, H, and J at a concentration of 10 μg/mL. Binding of antibodies C, D, E, H, and J to HaCaT cells was statistically significant. The results obtained by performing a FACS assay using HaCaT, which are human epithelial cells, and antibody G, antibody H, or antibody J are shown in FIG. 6A-6C, respectively. HaCaT cells were treated with Cell Dissociation Buffer for 30 minutes at 37° C., and then dislodged and collected. Then, the cells were reacted with 10 μg/mL anti AQP3 antibody at 4° C. for 1 hour. After washing the cells, a fluorescent-labeled anti mouse secondary antibody was added and the reaction was allowed to occur additionally for 1 hour (4° C.). Then, by using a flow cytometer, fluorescence intensity was measured (FIG. 6A to FIG. 6C). FIG. 6A represents the result of a case in which antibody G was used, FIG. 6B represents the result of a case in which antibody H was used, and FIG. 6C represents the result of a case in which antibody J was used. […] The histogram expressed with bold line represents a case in which the anti AQP3 antibody was used while the histogram expressed with thin gray line represents a case as a control in which the anti AQP3 antibody was not used (addition of non-specific IgG). […]

[7] = molecular target: T3, mouse AQP3 on the cell surface (PAM212 …); assay: FACS on HEK293 cells stably overexpressing mouse AQP3; antibody at 10 µg/mL
Description: A FACS assay was also performed using HEK293 cells stably overexpressing mouse AQP3. Cells were incubated with antibody E, H, J, or negative control IgG at a concentration of 10 μg/mL for one hour and then sorted by FACS. Separately, HEK293 cells stably overexpressing human AQP3 were incubated with antibody E at a concentration of 10 μg/mL for one hour and then sorted by FACS.

| Binder | binding result [1] | binding result [2] | binding result [3] | binding result [4] | binding result [5] | binding result [6] | binding result [7] |
| --- | --- | --- | --- | --- | --- | --- | --- |
| antibody C (antibody, mouse IgG2a, kappa, V domains shown, also called anti AQP3 mAb C) VH: QVQLKQSGAELARPGASVKLSCKASGYNFKSYGISWVKQRTGQGLEWIGEIYPGSGNTYYNEKLKGKATLTADKSSSTAYMELRSLTSEDSAVYFCARTYGYDSFPWFAYWGQGTLVTVSS VL: DIVMTQAAPSVPVTPGESVSISCRSSKSLLHSNGNTYLYWFLQRPGQSPQLLIYRVSNLASGVPDRFSGSGSGTAFTLRISRVEAEDEGVYYCMQHLEYPFTFGAGTKLEIKR | binds | binds | binds | binds | – | – | – |
| antibody J (antibody, mouse IgG2a, kappa, V domains shown, also called anti AQP3 mAb J; Ab) VH: QVHLQQSGTELVKPGASVKLSCEASGYTFTSYWMHWVKQRPGQGLEWIGNINPSNGGTNYNEKFKSKATLTVDKSSSTAYMQLSSLTSEDSAVYYCARGGIYYGNYDYYAMDYWGQGTSVTVSS VL: DIVMTQAAPSVPVTPGESVSISCRSSKSLLHSNGNTYLYWFLQRPGQSPQLLIYRVSNLASGVPDRFSGSGSGTAFTLRISRVEAEDVGVYYCMQHLEYPFTFGGGTKLEIKR | binds | binds | – | binds | binds | – | – |
| antibody K (antibody, mouse IgG2a, kappa, V domains shown, also called anti AQP3 mAb K) VH: QVQLKQSGAELVRPGTSVKVSCKASGYAFTNYLIEWVKQRPGQGLEWIGVINPGSGGTNYNEKFKGKATLTADKSSSTAYMQLSSLTSEDSAVYFCARWGFYYAMDYWGQGTSVTVSS VL: DIVMTQSPSSLSASLGERVSLTCRASQEISGYLSWLQQKPDGTIKRLIYAASTLDSGVPKRFSGSRSGSDYSLTISSLESEDFADYYCLQYASYPLTFGAGTKLEIKR | binds | – | – | binds | – | – | – |
| antibody G (antibody, mouse IgG2a, kappa, V domains shown, also called anti AQP3 mAb G) VH: QVQLKQSGAELVRPGASVTLSCKASGYTFTDYEMHWVKQTPVHGLEWIGGIDPETGGTAYNQKFKGKAILTADKSSSTAYMELRSLTSEDSAVYYCTRWGAITSFVALRGFAYWGQGTLVTVSS VL: DIQMTQSPSSLSVSAGEKVTMSCKSSQSLLNSGNQKNYLAWYQQKPGQPPKLLIYGASTRESGVPDRFTGSGSGTDFTLTISSVQAEDLAVYYCQNDHSYPPTFGAGTKLELKR | binds | – | binds | binds | – | binds | – |
| antibody B (antibody, mouse IgG2a, kappa, V domains shown, also called anti AQP3 mAb B) VH: EVQLVESGGDLVKPGGSLKLSCAASGFTFSSYGMSWVRQTPDKRLEWVATISRGSIYTYYPDSVKGRFTISRDNAKNTLYLQMSSLKSEDTAMYYCARLSLYDYDGARYTMDYWGQGTSVTVSS VL: DIVMTQSPKFMSTSVGDRVSITCKASQDVGTAVAWYQQKPGQSPKLLIYWASTRHTGVPDRFTGSGSGTDFTLTISNVQSEDLADYFCQQYSSYHTFGAGTKLELKR | binds | – | – | binds | – | – | – |
| antibody H (antibody, mouse IgG2a, kappa, V domains shown, also called anti AQP3 mAb H) VH: EVKLVESGGDLVKPGGSLKLSCAASGFTFSSYGMSWVRQTPDKRLEWVATISRRSIYTYYPDSVQGRFTISRDNAKNTLYLQMSSLKSEDTAMYYCARLSLYDYDGARYTMDYWGQGTSVTVSS VL: DIKMTQSPKFMSTSVGDRVSITCKASQDVGTAVAWYQQKPGQSPKLLIYWASTRHTGVPDRFTGSGSGTDFTLTISNVQSEDLADYFCQQYSSYHTFGAGTKLEIKR | binds | binds | – | binds | – | – | binds |
| antibody E (antibody, mouse IgG2a, kappa, V domains shown, also called anti AQP3 mAb E) VH: EVKLLESGAELVRPGASVTLSCKASGYTFTDYEMHWVKQTPVHGLEWIGGIDPESGGTGYNQKFKGKAILTADKSSSTAYMELRSLTSEDSAVYFCTRSGYYGSPLLDYWGQGTTLTVSS VL: QIVLSQSPAIMSASLGERVTMTCTASSSVSSSYLHWYQQKPGSSPKLWIYSTSNLASGVPARFSGSGSGTSYSLTISSMEAEDAATYYCHQYHRSPPTFGAGTKLEIKR | binds | binds | binds | binds | – | – | – |
| antibody D (antibody, mouse IgG2a, kappa, V domains shown, also called anti AQP3 mAb D) VH: EVQLQQSGAELVRPGASVTLSCKASGYTFTDYEMHWVQQTPVHGLEWIGGIDPETGGTGYNQKFKGKAILTADKSSSTAYMELRSLTSEDSAVYFCTRHGSYAMDYWGQGTSVTVSS VL: DIVMTQSPKFMSTSVGDRVSITCKASQDVSTAVAWYQQKPGQSPKLLIYWASTRHTGVPDRFTGSGSGTDYTLTISSVQAEDLALYYCQQHYSTPPTFGGGTRLEIKR | – | binds | binds | binds | – | – | – |
| antibody A (antibody, mouse IgG2a, kappa, V domains shown, also called anti AQP3 mAb A) VH: QVQLQQPGAELVRPGASVTLSCKASGYTFTDYEMHWVKQTPVHGLEWIGGVDPETGGTGYNQKFRGKAILTADKSSSTAYMELRSLTSEDSAVYYCARHGGSFYAMDYWGQGTSVTVSS VL: DIVMTQSPKFMSTSVGDRVSITCKASQDVSTAVAWYQQKPGQSPKLLIYWASTRHTGVPDRFTGSGSGTDYTLTISSVQAEDLALYYCQQHYSTPPTFGGGTKLELKR | – | – | – | binds | – | – | – |
| antibody F (antibody, mouse IgG2a, kappa, V domains shown, also called anti AQP3 mAb F) VH: QVQLKESGPELVKPGASVKISCKASGYTFTDYYINWVKQRPGQGLEWIGWIFPGSGSTYYNEKFKGKATLTVDKSSSTAYMLLSSLTSEDSAVYFCADYGSSYRYFDVWGAGTTVTVSS VL: DIVMTQSPAILSASPGEKVTMTCRASSSVSYMHWYQQKPGSSPKPWIYATSYLASGVPARFSGSGSGTSYSLTIGRVEAEDAATYYCQQWSSNPLTFGAGTKLELKR | – | – | – | binds | – | – | – |
